In the RNAGym collection of RNA variant scans (doi:10.7554/elife.90254):

B1: OR4K15 (parent)
chain: GUUAACGGUCAUAGGCCAUGGAAACUAGGAGCACCAUUUCGCUGCCAGUGAAGAAAUGAACAAAGAAAAUCUGGGCCAGGCAGGCAUCAAAAGAAAUAGUCUUGCGCUCAACCAGAAAGUCUGUAAUCAUUUUAAGGGUA

Variants of: B1
Test: self-cleavage, relative activity (ratio to wild type); higher = more cleavage; in vitro, sequencing; the parent is a self-cleaving ribozyme
U19C U39A gave a self-cleavage of 2.15. U19G C105G gave a self-cleavage of 0.05. Variant A18G U49C has a self-cleavage of 1.43. Work on U19C A66G yielded a self-cleavage of 1.62. In the case of U19C A66U, the self-cleavage is reported as 0.38. Variant U19A A98G has a self-cleavage of 0.5. U19C U103C gave a self-cleavage of 0.66. Variant U19A G53A has a self-cleavage of 1.39. A18U A91U gave a self-cleavage of 1.96. A18U A91G gave a self-cleavage of 1.16. Work on U19C A90G yielded a self-cleavage of 1.39. With U19C A90U the self-cleavage was 1.49. With A18U U49C the self-cleavage was 1.47. Variant A18U U49A has a self-cleavage of 1.67. A18U U72C showed a self-cleavage of 0.1. In the case of A18G C61U, the self-cleavage is reported as 1.18. Variant A18G A86G has a self-cleavage of 1.99. Variant A18U G58A has a self-cleavage of 1.09. With A18G G65U the self-cleavage was 1.18. For A18G U124A, the self-cleavage was 0.9. A18G U124G showed a self-cleavage of 0.94. Variant U19A A52G has a self-cleavage of 1.35. For G20U A94U, the self-cleavage was 2.23. Work on U19C C76U yielded a self-cleavage of 0.14. Variant A18G A51G has a self-cleavage of 1.86. A18G A51U showed a self-cleavage of 1.15. U19A A140G showed a self-cleavage of 1.75. U19C U70C showed a self-cleavage of 0.7. U19C U70A showed a self-cleavage of 1.06. For G20A A117G, the self-cleavage was 0.65. With U19C C85G the self-cleavage was 1.02. Work on A18C A118G yielded a self-cleavage of 1.22. U19C A126G showed a self-cleavage of 1.48. With G20A A27C the self-cleavage was 1.93. In the case of U19C G75C, the self-cleavage is reported as 0.17. For U19C G75A, the self-cleavage was 0.23. For A18G A33G, the self-cleavage was 0.97. In the case of A18C A82G, the self-cleavage is reported as 0.44. U19C C121A gave a self-cleavage of 2.88. With A18G U38C the self-cleavage was 0.46. In the case of A18G U38A, the self-cleavage is reported as 1.27. For U19C A96C, the self-cleavage was 0.69. In the case of U19C A96G, the self-cleavage is reported as 1.8. With U19C A96U the self-cleavage was 1.51. U19C U102G gave a self-cleavage of 0.78. Variant U19C U102C has a self-cleavage of 2.32. Variant U19C A82U has a self-cleavage of 0.21. G21A A33U showed a self-cleavage of 2.16. Work on U19C G31U yielded a self-cleavage of 1.29. Variant U19C G31A has a self-cleavage of 0.83. Work on U19C U108C yielded a self-cleavage of 0.02. Variant U19C U108A has a self-cleavage of 0.03. In the case of A18C G28U, the self-cleavage is reported as 1.37. Variant A18U U100C has a self-cleavage of 2.18. With U19C A51G the self-cleavage was 0.51. Work on U19C A111G yielded a self-cleavage of 0.03. U19G A69U gave a self-cleavage of 0.96. Variant U19C A27G has a self-cleavage of 0.89. U19C U97A showed a self-cleavage of 1.34. Variant U19C U97C has a self-cleavage of 1.5. In the case of A18G A62U, the self-cleavage is reported as 2.16. With A18G A62G the self-cleavage was 1.54. Variant A18G C109A has a self-cleavage of 0.34. A18G C109U gave a self-cleavage of 0.82. A18G G73U gave a self-cleavage of 0.23. Variant U19C A118U has a self-cleavage of 0.77. In the case of U19C A118C, the self-cleavage is reported as 1.15. U19C U43A gave a self-cleavage of 2.04. Work on U19A G137U yielded a self-cleavage of 1.52. For U19C A91U, the self-cleavage was 1.37. Variant U19C A54G has a self-cleavage of 1.21. For U19C A54C, the self-cleavage was 1.2. For A18G U57A, the self-cleavage was 1. For U19A A111U, the self-cleavage was 0.09. Work on U19C A117C yielded a self-cleavage of 0.71. Work on U19C A117U yielded a self-cleavage of 0.58. With U19C G44A the self-cleavage was 0.78. For A18U U70A, the self-cleavage was 1.35. Variant A18G A60G has a self-cleavage of 0.97. Variant A18U A114C has a self-cleavage of 0.03. In the case of A18U A114U, the self-cleavage is reported as 0.08. With A18G G93U the self-cleavage was 2.69. With U19A U130C the self-cleavage was 0.95. For U19C U49C, the self-cleavage was 1.6. In the case of U19C U49A, the self-cleavage is reported as 1.38. U19C U37C showed a self-cleavage of 1.5. A18G U139A showed a self-cleavage of 1.83. In the case of U19C A135U, the self-cleavage is reported as 1.5. For U19C A135G, the self-cleavage was 2.08. Work on U19C U133C yielded a self-cleavage of 2.01. For G20A U49A, the self-cleavage was 1.67. A18G A47G gave a self-cleavage of 1.14. Variant U19C U132C has a self-cleavage of 1.24. For A18G G80U, the self-cleavage was 0.14. With U19C U124C the self-cleavage was 0.87. Variant A18C C71U has a self-cleavage of 0.35. U19C gave a self-cleavage of 1.17. U19G gave a self-cleavage of 1.18. U19A gave a self-cleavage of 1.16. In the case of A18G A114C, the self-cleavage is reported as 0.05. U19A A33G showed a self-cleavage of 0.62. U19A A89U gave a self-cleavage of 0.85. A18G G75C gave a self-cleavage of 0.16. In the case of A18G U122A, the self-cleavage is reported as 0.94. Work on A18G A126G yielded a self-cleavage of 0.8. Work on U19A A59G yielded a self-cleavage of 1.12. Variant G20U A47G has a self-cleavage of 1.08. In the case of A18G A52G, the self-cleavage is reported as 1.67. A18G A52U gave a self-cleavage of 1.21. For U19A U100C, the self-cleavage was 1.68. Variant U19C G119A has a self-cleavage of 2.13. Variant U19C C113U has a self-cleavage of 0.08. U19G A23G gave a self-cleavage of 0.83. Work on A18G C42G yielded a self-cleavage of 1.02. G20A A92G gave a self-cleavage of 2.46. G20A A92U gave a self-cleavage of 0.79. With G20A U102A the self-cleavage was 0.58. With U19C A67U the self-cleavage was 1.67. In the case of U19C A67G, the self-cleavage is reported as 1.04. In the case of U19A A116C, the self-cleavage is reported as 0.09. With U19A A116U the self-cleavage was 0.43. For U19C A140U, the self-cleavage was 1.21. For U19C A114G, the self-cleavage was 0.39. In the case of U19C A114U, the self-cleavage is reported as 0.11. With U19C A125U the self-cleavage was 2.21. U19A U131C showed a self-cleavage of 1.46. Work on U19A U131G yielded a self-cleavage of 2.03. In the case of A18U G104A, the self-cleavage is reported as 0.05. In the case of A18G A94G, the self-cleavage is reported as 1. With A18G A96C the self-cleavage was 1.68. For A18G A96G, the self-cleavage was 1.44. Work on A18G A96U yielded a self-cleavage of 1.84. Variant G20A A118G has a self-cleavage of 0.79. A18G A82G showed a self-cleavage of 0.98. In the case of G20A A69G, the self-cleavage is reported as 1. A18U A67G showed a self-cleavage of 1.53. U19C G137A showed a self-cleavage of 0.95. Work on A18U A117U yielded a self-cleavage of 0.76. Work on A18G A22G yielded a self-cleavage of 1.01. A18G A22U gave a self-cleavage of 1.95. For U19C A98G, the self-cleavage was 0.25. A18C A117G gave a self-cleavage of 1.24. With A18G A117U the self-cleavage was 1.01. In the case of U19A A91G, the self-cleavage is reported as 1.06. Variant U19A A91C has a self-cleavage of 1.85. Variant G21A A27U has a self-cleavage of 1.32. Variant U19C U38C has a self-cleavage of 1.22. Variant A18U A47U has a self-cleavage of 0.78. A18U C113A showed a self-cleavage of 0.05. In the case of U19C U72C, the self-cleavage is reported as 0.25. For A18C U19C, the self-cleavage was 1.5. In the case of A18C A54G, the self-cleavage is reported as 0.89. Variant G21A A64U has a self-cleavage of 1.5. In the case of A18G U132G, the self-cleavage is reported as 1.71. For G20A A24G, the self-cleavage was 0.1. U19A A86G showed a self-cleavage of 2.13. A18G A23G gave a self-cleavage of 1.01. With A18C A60G the self-cleavage was 2.54. For U19A A69G, the self-cleavage was 1.14. With A18G A89U the self-cleavage was 1.48. U19A U127C showed a self-cleavage of 0.92. Work on A18U U102C yielded a self-cleavage of 0.98. In the case of A18U A98C, the self-cleavage is reported as 1.13. Work on U19G A110G yielded a self-cleavage of 0.2. G20A A95U gave a self-cleavage of 1.89. Variant A18G U87C has a self-cleavage of 1.27. In the case of A18G U87A, the self-cleavage is reported as 1.14.
